Data as given in US20090311685A1, “NMU-GHSR1b/NTSR1 oncogenic signaling pathway as a therapeutic target for lung cancer” (Oncotherapy Science, Inc, priority 2006, published 2009).
Where no end group is shown, it is not given here.

What was measured:
[1] = biological target: T1, endogenous GHSR1b and NTSR1 on PC14 cells (Homo sapiens, UniProt P30989+Q92847); experiment: Ligand-receptor binding assay with Cy5-labeled NMU-25; conditions: 1 μM, dose-dependent
T1 construct: endogenous in cells; host or cells: PC14
Description: (§1) To confirm the binding of NMU-25 to endogenous candidate receptors on the NSCLC cell, a receptor-ligand binding assay using LC319 and PC14 cells that express GHSR1b and NTSR1, but not NMU1R and NMU2R were performed. Specifically, trypsinized cells were seeded onto a 96-well (with black wall and clear bottom) microtiter plates 24 hours prior to the assay. The medium was removed and the cells were incubated with CyS-labeled NMU-25 peptide (1 μM) with or without the addition of 10-fold excess unlabeled NMU-25 peptide as the competitor. The plate was incubated in dark for 24 hours at 37° C. and then scanned on 8200 Cellular Detection System (Applied Biosystems) to quantify the amount of CyS fluorescence probe bound to the surface of each cell. (15) Immunocytochemistry for Internalized Receptors

[2] = biological target: T2, endogenous GHSR1b and NTSR1 on LC319 cells (Homo sapiens, UniProt P30989+Q92847); experiment: as above; conditions: 1 μM, dose-dependent
T2 construct: endogenous in cells; host or cells: LC319
Description: as §1

LC319 cells [3] = experiment: Intracellular Ca^2+ mobilization assay (FLIPR); format: cell-based, human
Description: Trypsinized LC319 cells were seeded onto poly-D-lysine coated 384-well black-wall, clear-bottom microtiter plate (1.0×10^4 cells/ml) 24 hours prior to the assay. The cells were loaded for 1 hour with 4 μM Fluo-3-AM fluorescent indicator dye in assay buffer (Hank's balanced salt solution, 20 mM HEPES, 2.5 mM probenecid), washed three times with assay buffer, and then incubated for 10 min at room temperature before detection on fluorometric imaging plate reader (FLIPR; Molecular Devices). Fluorescence data of Ca^2+ release were collected in real-time at 1 sec intervals for the first 65 sec and at 3 sec intervals for additional 300 sec after individual concentrations of peptide (NMU-25, […], or NTS) treatment. Maximum change in fluorescence over baseline was measured to determine the response of the cells to the individual peptide stimulations.

LC319 cells [4] = experiment: Measurement of cAMP levels (cAMP EIA); format: cell-based, human; conditions: final concentrations of 3 to 100 μM
Description: Trypsinized LC319, REF-LC-AI, NCI-H358 and SK-MED-1 cells were seeded onto a 96-well microtiter plate (5.0×10^4 cells) and cultured in appropriate medium supplemented with 10% FCS for 24 hours, and then the medium was changed to serum free/1 mM IBMX (isobutylmethylxanthine) 20 min prior to the assay. Next, the cells were incubated with individual concentrations of peptides (NMU-25, GHRL, or NTS) for 20 min and cAMP levels of the cells were measured using cAMP EIA System (GE Healthcare Bio-sciences).

NSCLC cells = experiment: Competition of NMU-induced cAMP production; format: cell-based
LC319 cells [5] = experiment: Flow cytometry of cell cycle after siRNA transfection; format: cell-based, human
Description: Cells were plated at a density of 5×10^5 cells/100-mm dish, transfected with siRNA-expression vectors, and cultured in the presence of appropriate concentrations of geneticin. Four days after transfection, the culture medium was replaced with geneticin-free medium. Cells were incubated for additional 24 hours, then trypsinized, collected in PBS, and fixed in 70% cold ethanol for 30 min. After treatment with 100 μg/ml RNase (Sigma-Aldrich Co.), the cells were stained with 50 μg/ml propidium iodide (Sigma-Aldrich Co.) in PBS. Flow cytometry was performed on Becton Dickinson FACSCalibur and analyzed by Cell Quest software (Becton Dickinson Biosciences). The percentage of nuclei in G0/G1, S, and G2/M phases on the cell cycle and the sub-GI population, were determined from at least 20,000 ungated cells.

[6] = biological target: the molecule itself; experiment: anti-FLAG immunoprecipitation, SDS-PAGE, immunoblot with anti-FLAG, anti-NTSR1 or anti-GHSR antibody
Description: Cell lysates from COS-7 cells that transiently express the FLAG-tagged GHSR1b, and those co-expressing both the FLAG-tagged GHSR1b and NTSR1 were immunoprecipitated with anti-FLAG antibody, subjected for SDS-PAGE, and then immunoblotted with anti-FLAG antibody (A), with anti-NTSR1 antibody (B), or with anti-GHSR antibody (C). The arrows indicate the monomer, heterodimer, and homodimers of the receptors. The molecular weight (kDa) markers are indicated on the left side of individual panels. Non-specific immunoreactive protein band detected by anti-FLAG antibody is indicated with asterisks.
Cultured cells were washed twice with ice-cold PBS(−) and incubated with 5 mM Dithiobis [succinimidyl propionate] (DSP) (PIERCE) for 60 min in PBS(−) on ice. The reaction was quenched by incubation with Stop solution (1 M Tris, pH 7.5) at a final concentration of 50 mM Tris for 15 min on ice. […] The solutions were subjected to SDS-PAGE, and receptor proteins were detected by Western blot analysis using mouse monoclonal anti-FLAG M2 antibody, goat polyclonal anti-NTSR1 antibody, or rabbit polyclonal anti-GHSR antibody as the primary antibody, and rec-Protein G-Peroxidase Conjugate (ZYMED Laboratories, Inc.) to detect the antigen-antibody complexes.

FLAG-tagged NTSR1 = biological target: T3, FLAG-tagged NTSR1 (Homo sapiens (Human), UniProt P30989 1-418); experiment: DSP cross-linking, immunoprecipitation and Western blot of transfected COS-7 cells
T3 construct: Transiently expressed in COS-7 cells; COS-7 cells also express GHSR1b and NTSR1 endogenously, so in the cells transfected only with FLAG-GHSR1b the NTSR1 partner is the endogenous COS-7 protein; also called NTSR1 (p3XFLAG-CMV10 construct); not shown: FLAG tag from the p3XFLAG-CMV10 vector
Description: Cultured cells were washed twice with ice-cold PBS(−) and incubated with 5 mM Dithiobis [succinimidyl propionate] (DSP) (PIERCE) for 60 min in PBS(−) on ice. The reaction was quenched by incubation with Stop solution (1 M Tris, pH 7.5) at a final concentration of 50 mM Tris for 15 min on ice. The cells were then washed twice with ice-cold PBS(−) and lysed in ice-cold Tx/G buffer (300 mM NaCl, 1% Triton X-100, 10% glycerol, 1.5 MM MgCl₂, 1 mM CaCl₂, and 10 mM iodoacetamide in 50 mM Tris-Cl, pH 7.4) containing protease inhibitor (Protease Inhibitor Cocktail Set III; Calbiochem) for 60 min on ice. […] The solutions were subjected to SDS-PAGE, and receptor proteins were detected by Western blot analysis using mouse monoclonal anti-FLAG M2 antibody, goat polyclonal anti-NTSR1 antibody, or rabbit polyclonal anti-GHSR antibody as the primary antibody, and rec-Protein G-Peroxidase Conjugate (ZYMED Laboratories, Inc.) to detect the antigen-antibody complexes.
To examine direct association between GHSR1b and NTSR1, either or both of FLAG-tagged GHSR1b and FLAG-tagged NTSR1 were transiently expressed in COS-7 cells (FIG. 2A depicts the data of transient GHSR1b expression, and FIG. 2B the expression of both receptors). […] No such species were detected when empty vector (mock) was transfected to COS-7 cells as the negative control.

COS-7 cells = experiment: Flow-cytometric binding of rhodamine-labeled NMU-25 to cells; conditions: 0.5-10 μM, 2 hours at room temperature
Description: (11) Cell-Growth and Colony-Formation Assays COS-7 transfectants that stably express NMU were seeded onto 6-well plates (5×10^4 cells/well), and maintained in medium containing 10% FCS and 0.4 mg/ml geneticin for 24, 48, 72, 96, 120, and 144 hours. At each time point, cell proliferation was evaluated by MTT assay using Cell Counting Kit (WAKO). Colonies were counted at 144 hours. All experiments were done in triplicate. Interaction of NMU-25 with COS-7 cells were examined by flow-cytometric analysis. Specifically, subconfluent cells were harvested in Cell Dissociation Solution (Sigma-Aldrich Co.) and suspended in DMEM. Then, 1×10^6 cells/microtube were washed with assay buffer (PBS(−) with 10 mM MgCl2, 2 mM EDTA, and 0.1% BSA), and the cells were incubated with 0.5-10 μM rhodamine-labeled NMU-25 peptide (NMU-25-rhodamine; Phoenix Pharmaceuticals, Inc.) in assay buffer for 2 hours at room temperature. Subsequently, the cells were washed twice with assay buffer.
To detect the population of cells binding to rhodamine-labeled NMU-25, flow cytometry was performed using Becton Dickinson FACSCalibur and analyzed by Cell Quest software. The growth effect of NMU on NSCLC cells was also examined using LC319 cells transiently transfected with plasmids expressing NMU or mock plasmids. The cells were cultured in RPMI containing 10% FCS and geneticin (1 mg/ml) for 18 days, and colonies were counted.

LC319 cells [7] = experiment: Internalization study with fluorescence ligand of NMU (confocal microscopy); format: cell-based, human
Description: LC319 cells were grown in DMEM containing 10% FCS. The cells were washed in PBS(−), and preincubated for 10 min at 37° C. in DMEM containing 0.1% BSA. The cells were then incubated for various periods of time with Alexa Fluor 594-labeled NMU-25 peptide in DMEM containing 0.1% BSA. At the end of incubation, the cells were washed three times with ice-cold PBS(−), fixed with 4% paraformaldehyde solution, initially for 5 min on ice and then for 15 min at room temperature. The cells were washed, and treated with DAPI. Images were viewed and assessed using confocal microscopy (TCS SP2 AOBS; Leica Microsystems). Optical sections with intervals of 0.25 μm were taken with 63×/1.4 objective.

T1 sequence (P30989 whole entry, one chain of several): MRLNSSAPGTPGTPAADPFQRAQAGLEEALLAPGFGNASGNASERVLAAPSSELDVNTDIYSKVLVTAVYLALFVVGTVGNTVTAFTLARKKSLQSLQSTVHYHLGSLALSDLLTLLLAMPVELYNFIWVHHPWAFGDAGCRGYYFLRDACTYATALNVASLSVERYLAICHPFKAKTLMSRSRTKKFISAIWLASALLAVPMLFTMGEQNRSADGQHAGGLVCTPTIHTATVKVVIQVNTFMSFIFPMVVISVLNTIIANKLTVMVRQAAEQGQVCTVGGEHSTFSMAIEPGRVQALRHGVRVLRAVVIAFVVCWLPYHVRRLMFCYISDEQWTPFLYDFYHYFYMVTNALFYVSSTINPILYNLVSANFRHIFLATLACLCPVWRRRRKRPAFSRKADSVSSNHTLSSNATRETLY
T2 sequence (P30989 whole entry, one chain of several): as above
T3 sequence (P30989 whole entry A200T): as the sequence (P30989 whole entry, one chain of several) above, with A200T counted along it

Molecule: Cy5-labeled NMU-25: Cy5 fluorescence-labeled NMU-25 peptide for the receptor-ligand binding assay (FRVDEEFQSPFASQSRGYFLFRPRN; ends and bridges not checked; also: Cy5 fluorescence label, site not given here)
- binding to the cell surface [1]: detected to bind to the surface
- binding to the cell surface [2]: detected to bind to the surface

Molecule: nerotensin [NTS]
- intracellular Ca^2+ flux / mobilization (LC319 cells [3]): caused the mobilization response
- cAMP production (LC319 cells [4]): did not enhance
- NMU-induced cAMP production (NSCLC cells): competitively inhibited

Molecule: si-EGFP: control siRNA against enhanced green fluorescent protein gene, 5′-GAAGCAGCACGACTTCTTC-3′ (SEQ ID NO: 46) (chemistry not given here)
- sub-GI fraction (LC319 cells [5]): 11.2%

B1: FLAG-tagged GHSR1b (receptor)
chain: MWNATPSEEPGFNLTLADLDWDASPGNDSLGDELLQLFPAPLLAGVTATCVALFVVGIAGNLLTMLVVSRFRELRTTTNLYLSSMAFSDLLIFLCMPLDLVRLWQYRPWNFGDLLCKLFQFVSESCTYATVLTITALSVERYFAICFPLRAKVVVTKGRVKLVIFVIWAVAFCSAGPIFVLVGVEHENGTDPWDTNECRPTEFAVRSGLLTVMVWVSSIFFFLPVFCLTVLYSLIGRKLWRRRRGDAVVGASLRDQNHKQTVKMLGGSQRALRLSLAGPILSLCLLPSL
notes: Transiently expressed in COS-7 cells; Cross-linked with DSP, immunoprecipitated with anti-FLAG beads and blotted; also called GHSR1b (p3XFLAG-CMV10 construct); not shown: FLAG tag from the p3XFLAG-CMV10 vector
- binding result [6]: binds
- binding result (FLAG-tagged NTSR1): binds

B2: rhodamine-labeled NMU-25 peptide: rhodamine-labeled NMU-25 peptide (Phoenix Pharmaceuticals, Inc.) (conjugate)
peptide: MLRTESCRPRSPAGQVAAASPLLLLLLLLAWCAGACRGAPILPQGLQPEQQLQLWNEIDDTCSSFLSIDSQPQASNALEELCFMIMGMLPKPQEQDEKDNTKRFLFHYSKTQKLGKSNVVSSVVHPLLQLVPHLHERRMKRFRVDEEFQSPFASQSRGYFLFRPRNGRRSAGFI
- binding to the cell surface (flow cytometry) (COS-7 cells): bound to the surface of COS-7 cells in a dose-dependent manner

B3: NMU-25-Alexa594: Alexa Fluor 594-labeled NMU-25 peptide (conjugate)
peptide: B2 peptide
- localization of internalized ligand (LC319 cells [7]; 15-min incubation): concentrated in dots or irregular clusters at more peripheral part of the cytoplasm
- localization of internalized ligand (LC319 cells [7]; 45-min incubation): concentrated within small spots clustered in the center of the cells, close to the nucleus
- internalization of labeled ligand (xz- and yz-projections) (LC319 cells [7]; confocal microscopy): incorporated within the cells
